This data set concerns the target T1, recombinant SNAP-tagged NLRP1^DR purified from bacteria.
T1 chain: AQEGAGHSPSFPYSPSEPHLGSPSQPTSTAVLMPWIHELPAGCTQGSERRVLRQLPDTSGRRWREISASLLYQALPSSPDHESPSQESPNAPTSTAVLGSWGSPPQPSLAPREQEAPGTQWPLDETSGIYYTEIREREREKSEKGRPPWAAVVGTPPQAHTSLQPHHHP

B1: p38β (protein)
chain: MSGPRAGFYRQELNKTVWEVPQRLQGLRPVGSGAYGSVCSAYDARLRQKVAVKKLSRPFQSLIHARRTYRELRLLKHLKHENVIGLLDVFTPATSIEDFSEVYLVTTLMGADLNNIVKCQALSDEHVQFLVYQLLRGLKYIHSAGIIHRDLKPSNVAVNEDCELRILDFGLARQADEEMTGYVATRWYRAPEIMLNWMHYNQTVDIWSVGCIMAELLQGKALFPGSDYIDQLKRIMEVVGTPSPEVLAKISSEHARTYIQSLPPMPQKDLSSIFRGANPLAIDLLGRMLVLDSDQRVSAAEALAHAYFSQYHDPEDEPEAEPYDESVEAKERTLEEWKELTYQEVLSFKPPEPPKPPGSLEIEQ
Take B1: the “phosphorylation in a recombinant kinase assay” value is “both p38α/β can phosphorylate NLRP1^DR in a recombinant kinase assay”.

B2: ZAKα kinase (wild-type) (protein)
chain: MSSLGASFVQIKFDDLQFFENCGGGSFGSVYRAKWISQDKEVAVKKLLKIEKEAEILSVLSHRNIIQFYGVILEPPNYGIVTEYASLGSLYDYINSNRSEEMDMDHIMTWATDVAKGMHYLHMEAPVKVIHRDLKSRNVVIAADGVLKICDFGASRFHNHTTHMSLVGTFPWMAPEVIQSLPVSETCDTYSYGVVLWEMLTREVPFKGLEGLQVAWLVVEKNERLTIPSSCPRSFAELLHQCWEADAKKRPSFKQIISILESMSNDTSLPDKCNSFLHNKAEWRCEIEATLERLKKLERDLSFKEQELKERERRLKMWEQKLTEQSNTPLLPSFEIGAWTEDDVYCWVQQLVRKGDSSAEMSVYASLFKENNITGKRLLLLEEEDLKDMGIVSKGHIIHFKSAIEKLTHDYINLFHFPPLIKDSGGEPEENEEKIVNLELVFGFHLKPGTGPQDCKWKMYMEMDGDEIAITYIKDVTFNTNLPDAEILKMTKPPFVMEKWIVGIAKSQTVECTVTYESDVRTPKSTKHVHSIQWSRTKPQDEVKAVQLAIQTLFTNSDGNPGSRSDSSADCQWLDTLRMRQIASNTSLQRSQSNPILGSPFFSHFDGQDSYAAAVRRPQVPIKYQQITPVNQSRSSSPTQYGLTKNFSSLHLNSRDSGFSSGNTDTSSERGRYSDRSRNKYGRGSISLNSSPRGRYSGKSQHSTPSRGRYPGKFYRVSQSALNPHQSPDFKRSPRDLHQPNTIPGMPLHPETDSRASEEDSKVSEGGWTKVEYRKKPHRPSPAKTNKERARGDHRGWRNF
As for B2, the “phosphorylation in a recombinant kinase reaction (PhosTag SDS-PAGE, SNAP ligand fluorescence)” value is recorded as “recombinant ZAKα is sufficient to phosphorylate SNAP-tagged NLRP1^DR purified from bacteria”.

The values above are taken from patent US20240148728.
